These results are taken from paper PMC7092895 (Biochemical and Biophysical Research Communications, 2005).

What all share (assay): ELISA
(In general: ELISA stands for enzyme-linked immunosorbent assay.)

One test has as its target interleukin 6 (IL-6) (Homo sapiens (assumed; ), UniProt P05231).
Test [1] addresses recombinant SARS-CoV nucleocapsid protein (SCoV-N), His6-tagged (SARS-CoV, strain CUHK-W1, UniProt P59595).
The target of test [2] is recombinant interleukin 11 (IL-11) (Homo sapiens (assumed; ), UniProt P20809).
Sequence of recombinant interleukin 11 (IL-11) (P20809 22-199): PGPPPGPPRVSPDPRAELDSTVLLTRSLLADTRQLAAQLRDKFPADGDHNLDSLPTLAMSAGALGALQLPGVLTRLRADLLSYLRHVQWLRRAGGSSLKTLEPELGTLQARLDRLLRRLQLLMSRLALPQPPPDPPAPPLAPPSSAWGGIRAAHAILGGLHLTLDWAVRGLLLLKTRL

Sequence of recombinant SARS-CoV nucleocapsid protein (SCoV-N), His6-tagged (P59595 whole entry): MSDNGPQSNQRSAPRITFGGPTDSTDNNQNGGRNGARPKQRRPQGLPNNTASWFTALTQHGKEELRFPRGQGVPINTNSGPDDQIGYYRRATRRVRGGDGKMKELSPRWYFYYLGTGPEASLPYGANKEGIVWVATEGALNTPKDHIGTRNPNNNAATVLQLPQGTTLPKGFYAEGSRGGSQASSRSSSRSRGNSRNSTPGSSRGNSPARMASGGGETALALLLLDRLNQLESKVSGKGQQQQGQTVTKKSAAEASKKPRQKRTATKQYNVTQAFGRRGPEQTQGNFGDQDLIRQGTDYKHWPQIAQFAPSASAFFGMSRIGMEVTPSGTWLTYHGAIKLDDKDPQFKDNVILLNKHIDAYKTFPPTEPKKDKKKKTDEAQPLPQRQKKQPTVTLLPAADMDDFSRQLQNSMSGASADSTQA
Sequence of interleukin 6 (IL-6) (P05231 30-212): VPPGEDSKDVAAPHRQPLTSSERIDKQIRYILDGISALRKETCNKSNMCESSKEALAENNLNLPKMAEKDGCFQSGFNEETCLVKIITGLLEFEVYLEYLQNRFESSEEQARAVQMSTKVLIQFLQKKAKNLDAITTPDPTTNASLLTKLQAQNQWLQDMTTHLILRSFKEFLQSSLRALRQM

B1: anti-N scFv L9N01 (scFv-phage clone) (scFv, V domains shown)
VH: GEAAAVQGTEVVKPGASVKLSCKASGYIFTSYDIDWVRQTPEQGLEWIGWIFPGEGSTEYNEKFKGRATLSVDKSSSTAYMELTRLTSEDSAVYFCARGDYYRRYFDLWGQGTTVTVSS
VL: DIELTQSPAIMSASPGERVTMTCSASSSIRYIYWYQQKPGSSPRLLIYDTSNVAPGVPFRFSGSGSGTSYSLTINGMEAEDAATYYCQEWSGYPYTFGGGTKLELK
With B1, the binding result with interleukin 6 (IL-6) is recorded as “no binding”; in test [1], “binds”; in test [2] it was “binds”.
